Here are results for 41 sequences from the nanobody polyreactivity screen of Harvey et al. (2022).

The data set in a line: yeast display, Sf9 membrane polyspecificity reagent, FACS + sequencing; frameworks hold sequencing errors. In outline: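 Synthetic nanobody libraries on Saccharomyces cerevisiae BJ5465 were galactose-induced for 36–48 hours, stained 1 hour at 4 °C with 10% biotinylated, detergent-solubilized Sf9 membrane reagent and enriched on streptavidin microbeads. FACS then separated cells into low and high (top ~1%) gates by anti-HA (expression) and streptavidin (reagent binding) fluorescence. Genes were colony-PCR amplified, MiSeq 2 × 250 sequenced and CDR-length filtered. A clone's polyreactivity label is that of its gate of origin.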
Turning to “QDQLVESGGGLVQAGCSLLLSCAASGRIFAKNAMVCYRQAPGKERELVATSSWSGSSTRYADSVKGRFTISRDYAKNSVYLQMNSLKPEDTAVYYCAARPTPRRTPYTATYDYWGQGTQVTVSS”, the “polyreactivity (PSR sort gate)” value is recorded as “high polyreactivity”.

As for “QDQLVESGGGLVQAGGCLRLSCAASGSIFIPYAMGSYRQAPGKERELVAAISLGDGNTYYADSVKGRFTISRDNAKYTVYLQMNSLKPEDTAVYYCNAVPRKFGDEYWGQGTQVTVSS”, the “polyreactivity (PSR sort gate)” value is on record as “low polyreactivity”.

Turning to “QDQLVESGGGLVQAGGGLRLSCAASVRTFSKYTMGWYRQAPGKERELVAAISYSGGSTYYADSVKGRFTISRDNAKNTVYLQMNSLKPEDTAVYYCAARASTYKYYYWGQGTQVTVSS”, the “polyreactivity (PSR sort gate)” value is listed as “high polyreactivity”.

Regarding “QDQLVESGGGLVQAGGILRLSCAASGSTFFHYAMGWYRQAPGQEREFVAANDSNGGSTYYADSVKGRFSISRDNAKNTVYLQMTCLKPEETAVNYCAADDLAEFEYDYWGQGTQVTVSS”, the “polyreactivity (PSR sort gate)” value was “low polyreactivity”.

For “QDQLVESGGGLVQAGGILSLSCAASGSTFSYYAMGWYRQAPGTETELVAAISSRGGSTYYADSVKGRFTISRDNAKNPVYLQMNSLNPEDTAVDYCNADHKFRSSVSGDHDYWGQGTQVTVSS”, the “polyreactivity (PSR sort gate)” value was “high polyreactivity”.

For the sequence “QDQLVESGGGLVQAGGRLRLSCAASGFIFYSYVMGRYRQAPGKERELVASIRSRGGSTYYADSVKGRFTISRDNAKNTVYLQMNSLKPEDTAVYYCAADLYLSPSWYKYDYWGQGTQVTVSS”, the “polyreactivity (PSR sort gate)” value is recorded as “low polyreactivity”.

As to “QDQLVESGGGLVQAGGSHRLSCAASGFISDKNAMGWYRQAPRKERELVAAISQRGDRTYYADSVKGRFTISRDNAKNTVYLQMNSLKPEDTAVYYCGYLVRYHHLRYWGQGTQVTVSS”, the “polyreactivity (PSR sort gate)” value was “high polyreactivity”.

For “QDQLVESGGGLVQAGGSHRLSCAASGSTFLGNTMGWYRQAPRKERELVAAISSSGTSTYYADSVKGRFTISRDNAKNTVYLQMNSLKPEDTAVYYCAAVIRVWWGFGDKYDYWGQGTQVTVAS”, the “polyreactivity (PSR sort gate)” value is given as “high polyreactivity”.

For “QDQLVESGGGLVQAGGSHRLTCAATGITLDNYVMGWYRQAPRTERELVAAISRTSGRTYYADSVKGRFTISRDNAKNTVYLQMHSLKPEDTGVYYCNARSRGRASGYDYWGHGTQVTVSS”, the “polyreactivity (PSR sort gate)” value is on record as “high polyreactivity”.

Take “QDQLVESGGGLVQAGGSIRLSCAASGGIFESYAMGWYRQAPGKEREMVASISSGGSTYYADSVKGRFTISRDNAKNTVYLQMNSLKPEDTAVYYCNKDYRSVYKGRGFDYWGQGTQVTVSS”: the “polyreactivity (PSR sort gate)” value was “low polyreactivity”.

For the sequence “QDQLVESGGGLVQAGGSLGLSCAASGSIFGFYDMGWSRQAPGKERELVAAITSGDSTHYADSVKGRFTISRDNAQNTVYVQMNSLKPVDTAVYYCAASAPYRYYRSAYYSWGQGTQVTVSS”, the “polyreactivity (PSR sort gate)” value is “low polyreactivity”.

“QDQLVESGGGLVQAGGSLRLICAASARTFSHYPLGWYRQAAGKERELVATITRNGRITYYADSVKGRFTISRDNAKYTVYFQMNSLKPEDTAVYYFNKRWGGPIQFDYWGPGTQVTVSS”: the “polyreactivity (PSR sort gate)” value is given as “low polyreactivity”.

Regarding “QDQLVESGGGLVQAGGSLRLICSASGIILGSNAMGWYRQAPGKERELVAAITSSGSTYYADSVKGRFTISRDNAKNTVYIQMNSLKPEDTAVYYCATGWLRRAVRFNYWGQGTQVTLSS”, the “polyreactivity (PSR sort gate)” value is reported as “high polyreactivity”.

Turning to “QDQLVESGGGLVQAGGSLRLRCAASGSIFGGYAMGWYRQAPGKERELVDAISSGGTTNYADSVMGRFTISRDNAKNTVYLQMNSLKQEDRAVYYCAREYGTTYQSVQVKFIQLDYWGQGTLVTVSS”, the “polyreactivity (PSR sort gate)” value is “low polyreactivity”.

“QDQLVESGGGLVQAGGSLRLSCAASGFIFFGYAMGWYRQAPGKERELVAAITSGGSTYYADSVKGRFTISRDNAKNTVYLQMNSLKPEDTAVYYCAAVLWYGSKRYGYWGQGTQVTVSS”: the “polyreactivity (PSR sort gate)” value was “high polyreactivity”.

“QDQLVESGGGLVQAGGSLRLSCAASGFIFGRYTMGWYRQAPGQDRELVAAISSRGGSTYDADSGKGRFTISRDNAKNTVYLQMNSLKPEDTAVYYCNALRRPSTEGRDYWGQGTQVTVSS”: the “polyreactivity (PSR sort gate)” value was “high polyreactivity”.

As to “QDQLVESGGGLVQAGGSLRLSCAASGFIFKWNAMGWYRQAPGKERELVAGITRGGSTYADSVKGRFTISRDNAKNTVYLQMNSLKPEDTAVDYCAAGDYDEYDYWGQGTQVTVSS”, the “polyreactivity (PSR sort gate)” value was “high polyreactivity”.

For the sequence “QDQLVESGGGLVQAGGSLRLSCAASGFTFGSYAMGWYRQAHGKERELVAAITASGGSTYYADSVKGRFTISRDNAKNTVYLQMNSLKPEDTAFYYCATRRYDGVAAFRMYYWGQGTQVTVSS”, the “polyreactivity (PSR sort gate)” value is “high polyreactivity”.

“QDQLVESGGGLVQAGGSLRLSCAASGFTFRDYTRGWYRQAPGKERELVAAISLSGGSTYYADSVKGRFTISRDNAKNTVYFQMNSLKPEDTAVYYCAAGYLLWRTWDYGAGHNFWGQGTQVTVSS”: the “polyreactivity (PSR sort gate)” value is listed as “high polyreactivity”.

Take “QDQLVESGGGLVQAGGSLRLSCAASGFTFRHYVMGGSRQAPGKERELVAAIDVRGGSTYYADSVKGRFTISRDNAKNTVYLQMNSLKPEDTAVYYCAKRLIPRLPIMQKMDYWGQGTQVTVSS”: the “polyreactivity (PSR sort gate)” value is on record as “low polyreactivity”.

On to “QDQLVESGGGLVQAGGSLRLSCAASGFTFSAYAMGWYRQAPGKERELVAAISTRGGSTRYADSVKGRFTISRDNAKNTVYLQMNSLKPEDTAVYYCAVEVYSYLYYETYPTEYEYWGQGTQVTVSS”, for which the “polyreactivity (PSR sort gate)” value is listed as “high polyreactivity”.

Take “QDQLVESGGGLVQAGGSLRLSCAASGFTFYPYTRGWYRQAPGKERELVAAISKSGGSTYYADSVKGRFTISRDNAKNTVYLQMNSLKPEDSAVYYCAAQRYSYYTPDDDYWGQGTQVTVSS”: the “polyreactivity (PSR sort gate)” value was “high polyreactivity”.

For “QDQLVESGGGLVQAGGSLRLSCAASGGIFFYYVMGWYRKAPGKEREFVAAITSGGSTYYADSVKGRFTISGDNAKNTVYLQMNRLKPEDTAVYYCNARDVVDYSVWSRYAYDYWGQGTQVTVSS”, the “polyreactivity (PSR sort gate)” value was “low polyreactivity”.

For “QDQLVESGGGLVQAGGSLRLSCAASGGTFSLYAKGWYRQAPGKEREFVAAISWRGTSTYYADSVKGRFTISRDNAKNTVYLQMNSLKPEDTAVYYCAARAWHEYGSWVQGTQVTVSS”, the “polyreactivity (PSR sort gate)” value is “high polyreactivity”.

On to “QDQLVESGGGLVQAGGSLRLSCAASGHIISTYAMGWYRPAPGKERQLVASISENGGTTYYADSVKGRFTISRDIAKNTVYLQMYSLKPEDTAVYYCNADAYVYFDDGDYWGQGTQVTVSS”, for which the “polyreactivity (PSR sort gate)” value is given as “low polyreactivity”.

Regarding “QDQLVESGGGLVQAGGSLRLSCAASGIIFYGYAMGWYRQAPGKERQLVAGISSGGSTYYADSVKGRFTISRDNAKNTVYLQMNSLNPEDTAVYYCNAEGGYSYESTDHYRYDYWGLGTQVTVSS”, the “polyreactivity (PSR sort gate)” value is on record as “low polyreactivity”.

On to “QDQLVESGGGLVQAGGSLRLSCAASGIIFYVYAMGWYRLAPGKERELVAAISRSGGRTYYADSVKGRFTISRDNAKNTVYFQMNSLKPEDTAVYYCAADAYRTPTHYYWGQGTQVTVSS”, for which the “polyreactivity (PSR sort gate)” value is “high polyreactivity”.

“QDQLVESGGGLVQAGGSLRLSCAASGITFDRYALGWYRQAPGKEREFVAAISWRGGSTYYADSVKGRFTISRDNAKNTVYLQMNSLKPEDTAVYYCAVGYYDHDYWYEYWGQGSQVTVSS”: the “polyreactivity (PSR sort gate)” value was “high polyreactivity”.

Turning to “QDQLVESGGGLVQAGGSLRLSCAASGITFQWYAMGWYRQAPGKEREFVAAITYRGGSTYYADSVKGRFTISRDNAKNTVYLQMNSLKPEDTAVYYCARDDSRLLHPSWLDYWGKGTQVTVSS”, the “polyreactivity (PSR sort gate)” value is given as “high polyreactivity”.

Regarding “QDQLVESGGGLVQAGGSLRLSCAASGITFSSNAMGGYRQAPGKERELVAAISRNGDRTYYADSVKGRFTISRDNAKNTVYLQMNSLKPEVTAVYYCATAYPGSRRDYWGQGTQVTVSS”, the “polyreactivity (PSR sort gate)” value is listed as “high polyreactivity”.

“QDQLVESGGGLVQAGGSLRLSCAASGITFYTYAMGWSRQAPGKERELVAAISRSGGSTYYADSVKGRITISRDNAKYTVYLQMNSLKPEDSAVYYCAAVYRGRDMDYWGLGTQVTVSS”: the “polyreactivity (PSR sort gate)” value is “high polyreactivity”.

“QDQLVESGGGLVQAGGSLRLSCAASGLIFIDYAMGWYRQAPGKERELVAAITRGGARTYYADSVKGRFTISRDNAKNTVYLQMNSLNPEDTAVYYCAADRPGSRYIDVDYWGQGTQVTVSS”: the “polyreactivity (PSR sort gate)” value is listed as “high polyreactivity”.

For the sequence “QDQLVESGGGLVQAGGSLRLSCAASGLIFLYAMGWYRQAPGKERELVAAISNGGSTYYADSVKGRFTISRDNAKNTVYLQMNSLKPEDTAVYYCAAKGVRRRYRPDMYYWGQGTQVTVSS”, the “polyreactivity (PSR sort gate)” value is given as “high polyreactivity”.

With “QDQLVESGGGLVQAGGSLRLSCAASGLIFNVNNMGWYRQAPGKDRELVAAISWSGTSTYYADSVKGRFTISRDKAKNTVYLQMNSLKPEDTAVYYCAAYNHRWEYEYWGQGTQVTVSS”, the “polyreactivity (PSR sort gate)” value is listed as “high polyreactivity”.

For “QDQLVESGGGLVQAGGSLRLSCAASGLIFRIYAMGWYRQAAGKERELVAAITSGGTSTSYADSVKGRFSISRDNAKNTVYLQMNSLKPEDTAVYYCNARWSDRVRIGLDYWGQGTQVTVSS”, the “polyreactivity (PSR sort gate)” value was “high polyreactivity”.

As for “QDQLVESGGGLVQAGGSLRLSCAASGLIIRWYAMGWDRQAPGKERELVAAISGNGGRTYYADSVKGRFTISRDNASNTVYLQMNSLKPEDTAVYYCAAEYRRALGVDYWGQGTQVTVSW”, the “polyreactivity (PSR sort gate)” value is reported as “high polyreactivity”.

Consider “QDQLVESGGGLVQAGGSLRLSCAASGLTFDSYAMGWYRQAPGKERELVAAISWNTASTYYADSVKGRFTISRDNAKNTVYLQMNSLKPEDTAVYYCAAARSRRPHYDYWRQGTQVTVSS”, for which the “polyreactivity (PSR sort gate)” value is “high polyreactivity”.

Consider “QDQLVESGGGLVQAGGSLRLSCAASGLTFEVYAMGWYRQAPGKERELVAAISSGGGSKYYADSVKGRFTISRDNAKNTVYLQMISLKPEDTAVYYCNAVAKLYYWRYDYLGQGTQVTVSS”, for which the “polyreactivity (PSR sort gate)” value is “low polyreactivity”.

As to “QDQLVESGGGLVQAGGSLRLSCAASGLTFRLYAMGSYRQAPAKEREWVAAITSSSGSTYYADSVKGRFTISRDTANYTVYLQMNSLKPEDTAVYYCNAVRYTTQTPNVDYGYWGLGTQVTVSS”, the “polyreactivity (PSR sort gate)” value was “high polyreactivity”.

Regarding “QDQLVESGGGLVQAGGSLRLSCAASGLTLLHYAMGWYRQAPGKERELVAAISTRGGSTYYADSVKGRFTISRDNAKNTVYLQMNSLKPEDTADYYCNALKGRPRGTAGYYRVEYWGQGTQVTVSS”, the “polyreactivity (PSR sort gate)” value is on record as “high polyreactivity”.

As to “QDQLVESGGGLVQAGGSLRLSCAASGLTYYVYSMGWYRQAPGKERELVARITWSGGSTYYADSVKGRFTISRDNAKNTVYLQMNSVKAEDTAVYYSAAEWSEESDYWGQVTQVTVSS”, the “polyreactivity (PSR sort gate)” value is recorded as “low polyreactivity”.
